B1: Pre-mRNA-processing factor 40 homolog B, residues 274 to 332; numbered along this chain, Q6NWY9 (parent)
chain: SNREKAKQAFKELLRDKAVPSNASWEQAMKMVVTDPRYSALPKLSEKKQAFNAYKAQRE

Variants of: B1
Assay: abundance fitness (aPCA) (normalised: wild type 0, dead -1); higher = more abundant; growth selection in yeast, the domain comes from the species named
Conditions: Homo sapiens

Abundance fitness: each site, then its substitutions
P36: F -0.307; D -0.049; L -0.63
A23: N -0.335; V -0.222; F -0.348; M -0.142; Q -0.528; Y -0.254; H -0.591; P -0.533; I -0.122; G -0.464; C -0.206; D -0.522; S -0.313; R -0.506; T -0.467; K -0.459
W25: C -0.109; Y -0.18; K -0.221; Q -0.36; E -0.095; R -0.189; T -0.149; A -0.244; S -0.13; D -0.114; G -0.161; N 0.038; P -0.237; V -0.291; L -0.242; I -0.251; F 0.249; H -0.347
V33: P -0.384; E 0.169; Y -0.269; S 0.198; G 0.055; N 0.152; Q 0.053; D 0.006; T -0.042; K 0.169; L -0.135; W 0.012; A 0.141; C 0.137; F -0.228; M 0.171; H 0.164
S24: P -0.169; Y -0.74; E -0.306; N -0.447; C -0.371; D -0.355; V -0.644; W -1; A -0.238; Q -0.422; I -0.65; M -0.591; F -0.654; H -0.344; R -0.671; K -0.229; G -0.366
P20: I -0.753; F -1.59; N -0.587; H -0.789; Y -0.641; R -0.592; M -0.549; S -0.506; K -0.654; G -0.391; L -0.641; V -0.578; T -0.421
M29: P -0.103; E -0.102; R -0.078; C -0.203; A -0.125; F -0.295; T -0.282; L -0.216; Q 0.047; V -0.114; G -0.237; K 0.166; S -0.136; Y -0.014; D -0.097
N22: S -0.036; I -1.04; D 0.05; L -0.446; W -0.063; H -0.179; E 0.03; Q -0.217; F -0.906; T -0.014; K -0.553; M -0.623; R -0.505; Y -0.57; C -0.211; G -0.217; P -0.664
K30: W -0.999; Q -0.072; E 0.067; S -0.156; Y -1.08; A -0.061; D -0.411; P -0.146; H -0.384; C -0.423; V -0.429; L -0.42; I -0.701; R -0.03; F -0.76; T -0.143; G -0.214; M -0.247
S39: E 0.102; L -0.342; P -0.527; M -0.053; K -0.228; Y -0.247; H 0.098; C -0.141; A -0.02; D -0.068; N 0.333; W -0.278; Q -0.191; G -0.071; T -0.099; R 0.032
A28: L -0.684; K -0.524; M -0.576; S -0.413; W -0.71; H -0.583; D -0.473; N -0.445; F -0.563; I -0.595; Q -0.313; T -0.299; G -0.48; R -0.607; E -0.431; V -0.277
A40: C -0.129

From the Human Domainome abundance scans (Beltran et al. 2025)
